For experiment [1], the target named is Human TRAIL-R2-Fc F112A (human) (UniProt O14763). Kind of experiment: SPR. Background: SPR reads the build-up and loss of mass on a sensor chip optically.
The target of experiment [2] is human TRAIL-R2-Fc E78A/D109A (human) (UniProt O14763). Kind of experiment: SPR.
For experiment [3], the target named is human TRAIL-R2-Fc L110A/L114A (human) (UniProt O14763). Kind of experiment: SPR.
Experiment [4] addresses human TRAIL-R2-Fc M152A/R154A/K155A (human) (UniProt O14763). Kind of experiment: SPR.
Experiment [5] addresses Human TRAIL-R2-Fc D148A (human) (UniProt O14763). Put plainly: SPR.
Experiment [6] deals with human TRAIL-R2-Fc K155A (human) (UniProt O14763). Put plainly: SPR.
Experiment [7] deals with human TRAIL-R2-Fc P150A (human) (UniProt O14763). Put plainly: SPR.
Experiment [8] addresses human TRAIL-R2-Fc R154A (human) (UniProt O14763). Put plainly: SPR.
The target of experiment [9] is human TRAIL-R2-Fc M152A (human) (UniProt O14763). Put plainly: SPR.
In experiment [10] the target is Human TRAIL-R2-Fc V167A (human) (UniProt O14763). Kind of experiment: SPR.
Experiment [11] addresses Human CD155-Fc fusion protein (human) (UniProt P15151). Kind of experiment: SPR.
For experiment [12], the target named is Recombinant UL141 ectodomain (soluble, released from the Fc fusion) (human cytomegalovirus (HCMV), FIX strain) (UniProt Q6RJQ3). Put plainly: SEC; size-exclusion elution profiles of the purified proteins against marker proteins. (In general: Size exclusion chromatography separates by hydrodynamic size, large species first.)
The target of experiment [13] is TRAIL-R1-Fc fusion protein (UniProt O00220). Kind of experiment: SPR.
The target of experiment [14] is Human TRAIL-R2-Fc fusion protein (wild type) (human) (UniProt O14763). Put plainly: SPR.
Experiment [15] has as its target Human TRAIL-R2-Fc D109A together with E78A (human) (UniProt O14763). Put plainly: SPR.
The target of experiment [16] is Human TRAIL-R2-Fc double mutation L110A and L114A (human) (UniProt O14763). Put plainly: SPR.
For experiment [17], the target named is TRAIL-R1 ECD (Homo sapiens) (UniProt O00220). Put plainly: SPR. As to conditions: cited from earlier work.
The target in experiment [18] is TRAIL-R2 ECD (Homo sapiens) (UniProt O14763). Kind of experiment: SPR. The settings on record: cited from earlier work.

By Kd is commonly meant the equilibrium constant for the complex coming apart. As usually defined, the koff is a measure of how fast the partners let go of each other. A low value points to a long-lived complex. The term kon denotes the rate constant with which the complex forms. As usually defined, the stoichiometry N is a count of units in the complex or per binding partner.

Chain of TRAIL-R1-Fc fusion protein (O00220 24-239): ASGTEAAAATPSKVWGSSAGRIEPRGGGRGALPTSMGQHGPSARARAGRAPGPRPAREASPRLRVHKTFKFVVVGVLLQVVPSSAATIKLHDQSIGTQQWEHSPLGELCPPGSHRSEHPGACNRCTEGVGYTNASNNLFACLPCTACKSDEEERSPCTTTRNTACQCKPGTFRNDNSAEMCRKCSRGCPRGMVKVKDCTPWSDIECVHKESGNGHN
Chain of Human CD155-Fc fusion protein (human) (P15151 21-343): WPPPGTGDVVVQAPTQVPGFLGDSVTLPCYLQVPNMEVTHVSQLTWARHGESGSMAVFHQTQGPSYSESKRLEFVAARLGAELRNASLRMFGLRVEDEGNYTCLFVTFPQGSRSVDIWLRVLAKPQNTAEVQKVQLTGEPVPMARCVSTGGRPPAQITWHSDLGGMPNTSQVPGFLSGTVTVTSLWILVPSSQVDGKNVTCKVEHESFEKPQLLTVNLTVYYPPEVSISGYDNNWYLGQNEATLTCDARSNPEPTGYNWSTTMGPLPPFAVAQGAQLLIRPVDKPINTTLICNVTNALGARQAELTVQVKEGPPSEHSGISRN
Chain of TRAIL-R1 ECD (Homo sapiens) (O00220 24-239): as the sequence (O00220 24-239) above

Regarding “HCMV UL141 ectodomain, soluble (released from the thrombin-cleavable Fc fusion) (from UniProt Q6RJQ3 37-278) (domain or fragment)”, the Kd in experiment [1] was determined as 630 nM; in experiment [2] it was 60.4 nM; in experiment [3] it was 42.7 nM; in [4], 7.39 nM; in experiment [5] it was 55.3 nM; in experiment [6], 7.74 nM. In addition, the Kd was found to be 8.32 nM in [7], 6.26 nM in experiment [8], 7.49 nM in experiment [9] and 15.5 nM in experiment [10]. The koff in experiment [1] was determined as 0.00566 s⁻¹; in experiment [2] it was 0.00151 s⁻¹; in [3], 0.00064 s⁻¹; in [4], 0.00027 s⁻¹; in experiment [5], 0.0013 s⁻¹; in [6] it was 0.00038 s⁻¹. Also, the koff worked out at 0.000391 s⁻¹ in experiment [7], 0.000243 s⁻¹ in experiment [8], 0.000382 s⁻¹ in experiment [9] and 0.00048 s⁻¹ in experiment [10]. Moreover, the kon was determined as 8980 M⁻¹ s⁻¹ in experiment [1]; 25000 M⁻¹ s⁻¹ in [2]; 15000 M⁻¹ s⁻¹ in [3]; 36500 M⁻¹ s⁻¹ in experiment [4]; 23500 M⁻¹ s⁻¹ in experiment [5]; 49100 M⁻¹ s⁻¹ in experiment [6]. The kon stood at 47000 M⁻¹ s⁻¹ in [7], 38800 M⁻¹ s⁻¹ in experiment [8], 51000 M⁻¹ s⁻¹ in [9] and 31000 M⁻¹ s⁻¹ in experiment [10].

In experiment [11], “Pre-formed UL141–TRAIL-R2 complex (from UniProt Q6RJQ3;O14763)” registered a K Dave of 2 nM, a Kd of 2.19 nM, a koff of 0.000333 s⁻¹ and a kon of 152000 M⁻¹ s⁻¹.

Consider “Recombinant UL141 ectodomain (soluble, released from the Fc fusion) (from UniProt Q6RJQ3 37-278) (domain or fragment)”, for which, in experiment [12], the stoichiometry N is 2. The Kd in [1] was 630 nM; in experiment [11], 1.97 nM; in [13], 2330 nM; in experiment [5], 55 nM; in experiment [14], 5.96 nM; in experiment [16], 43 nM. Moreover, the Kd in experiment [10] amounted to 15 nM. In addition, in experiment [11], the K Dave was determined as 2 nM. Besides, the off-rate constant (koff) in experiment [11] turned out to be 0.000346 s⁻¹; in experiment [13], 0.014 s⁻¹; in [14], 7.21e-05 s⁻¹. The kon is 176000 M⁻¹ s⁻¹ in experiment [11], 6020 M⁻¹ s⁻¹ in [13] and 12100 M⁻¹ s⁻¹ in experiment [14]. The substance further showed a KDeq in experiment [13] of 2.27 µM. For the same substance, in [15], the fold reduction of binding affinity against wild type came to 10 fold.

In the case of UL141 (from UniProt Q6RJQ3), the Kd was 2300 nM in experiment [17] and 6 nM in [18].
